# Results from US20220363757A1.
# Key:
# [1] = biological target: human LAG-3 domain 1-2 Fc fusion, chimeric construct #7 (mutated region AA 53-60) (human) (UniProt P18627); test: SPR, Fab over captured mutant LAG-3-Fc
# [2] = biological target: human LAG-3 domain 1-2 Fc fusion, point mutation #10 S54A (human) (UniProt P18627); test: SPR, Fab over captured mutant LAG-3-Fc
# [3] = biological target: human LAG-3 domain 1-2 Fc fusion, chimeric construct #20 (mutated region AA 123-131) (human) (UniProt P18627); test: SPR, Fab over captured mutant LAG-3-Fc
# [4] = biological target: human LAG-3 domain 1-2 Fc fusion, chimeric construct #6 (mutated region AA 48-55) (human) (UniProt P18627); test: SPR, Fab over captured mutant LAG-3-Fc
# [5] = biological target: human LAG-3 domain 1-2 Fc fusion, point mutation #40 G93A (human) (UniProt P18627); test: SPR, Fab over captured mutant LAG-3-Fc
# [6] = biological target: human LAG-3 domain 1-2 Fc fusion, point mutation #61 R119A (human) (UniProt P18627); test: SPR, Fab over captured mutant LAG-3-Fc
# [7] = biological target: human LAG-3 domain 1-2 Fc fusion, point mutation #5 P46A (human) (UniProt P18627); test: SPR, Fab over captured mutant LAG-3-Fc
# [8] = biological target: human LAG-3 domain 1-2 Fc fusion, point mutation #20 A73S (human) (UniProt P18627); test: SPR, Fab over captured mutant LAG-3-Fc
# [9] = biological target: human LAG-3 domain 1-2 Fc fusion, point mutation #2 Q41A (human) (UniProt P18627); test: SPR, Fab over captured mutant LAG-3-Fc
# [10] = biological target: human LAG-3 domain 1-2 Fc fusion, point mutation #68 Q128A (human) (UniProt P18627); test: SPR, Fab over captured mutant LAG-3-Fc
# [11] = biological target: human LAG-3 domain 1-2 Fc fusion, point mutation #47 T100A (human) (UniProt P18627); test: SPR, Fab over captured mutant LAG-3-Fc
# [12] = biological target: human LAG-3 domain 1-2 Fc fusion, point mutation #49 G105A (human) (UniProt P18627); test: SPR, Fab over captured mutant LAG-3-Fc
# [13] = biological target: human LAG-3 domain 1-2 Fc fusion, point mutation #78 R154A (human) (UniProt P18627); test: SPR, Fab over captured mutant LAG-3-Fc
# [14] = biological target: human LAG-3 domain 1-2 Fc fusion, point mutation #64 E124A (human) (UniProt P18627); test: SPR, Fab over captured mutant LAG-3-Fc
# [15] = biological target: human LAG-3 domain 1-2 Fc fusion, point mutation #3 P43A (human) (UniProt P18627); test: SPR, Fab over captured mutant LAG-3-Fc
# [16] = biological target: human LAG-3 domain 1-2 Fc fusion, point mutation #1 A40S (human) (UniProt P18627); test: SPR, Fab over captured mutant LAG-3-Fc
# [17] = biological target: human LAG-3 domain 1-2 Fc fusion, point mutation #43 P96A (human) (UniProt P18627); test: SPR, Fab over captured mutant LAG-3-Fc
# [18] = biological target: human LAG-3 domain 1-2 Fc fusion, point mutation #35 A88S (human) (UniProt P18627); test: SPR, Fab over captured mutant LAG-3-Fc
# [19] = biological target: human LAG-3 domain 1-2 Fc fusion, point mutation #59 Q117A (human) (UniProt P18627); test: SPR, Fab over captured mutant LAG-3-Fc
# [20] = biological target: human LAG-3 domain 1-2 Fc fusion, chimeric construct #9 (mutated region AA 66-71) (human) (UniProt P18627); test: SPR, Fab over captured mutant LAG-3-Fc
# [21] = biological target: human LAG-3 domain 1-2 Fc fusion, chimeric construct #19 (mutated region AA 118-127) (human) (UniProt P18627); test: SPR, Fab over captured mutant LAG-3-Fc
# [22] = biological target: human LAG-3 domain 1-2 Fc fusion, point mutation #29 P82A (human) (UniProt P18627); test: SPR, Fab over captured mutant LAG-3-Fc
# [23] = biological target: human LAG-3 domain 1-2 Fc fusion, point mutation #50 P106A (human) (UniProt P18627); test: SPR, Fab over captured mutant LAG-3-Fc
# [24] = biological target: human LAG-3 domain 1-2 Fc fusion, chimeric construct #15 (mutated region AA 95-100) (human) (UniProt P18627); test: SPR, Fab over captured mutant LAG-3-Fc
# [25] = biological target: human LAG-3 domain 1-2 Fc fusion, point mutation #80 R163A (human) (UniProt P18627); test: SPR, Fab over captured mutant LAG-3-Fc
# [26] = biological target: human LAG-3 domain 1-2 Fc fusion, point mutation #73 R137A (human) (UniProt P18627); test: SPR, Fab over captured mutant LAG-3-Fc
# [27] = biological target: human LAG-3 domain 1-2 Fc fusion, point mutation #37 S90A (human) (UniProt P18627); test: SPR, Fab over captured mutant LAG-3-Fc
# [28] = biological target: human LAG-3 domain 1-2 Fc fusion, chimeric construct #1 (mutated region AA 23-30) (human) (UniProt P18627); test: SPR, Fab over captured mutant LAG-3-Fc
# [29] = biological target: human LAG-3 domain 1-2 Fc fusion, point mutation #23 P76A (human) (UniProt P18627); test: SPR, Fab over captured mutant LAG-3-Fc
# [30] = biological target: human LAG-3 domain 1-2 Fc fusion, point mutation #53 L109A (human) (UniProt P18627); test: SPR, Fab over captured mutant LAG-3-Fc
# [31] = biological target: human LAG-3 domain 1-2 Fc fusion, point mutation #57 R113A (human) (UniProt P18627); test: SPR, Fab over captured mutant LAG-3-Fc
# [32] = biological target: cynomolgus LAG-3 ECD human IgG1 Fc fusion (cynomolgus; human) (UniProt P18627); test: SPR, Fab over captured LAG-3 ECD-Fc
# [33] = biological target: human LAG-3 ECD human IgG1 Fc fusion (human) (UniProt P18627); test: SPR, Fab over captured LAG-3 ECD-Fc
# Chain of human LAG-3 ECD human IgG1 Fc fusion (human) (P18627 23-450): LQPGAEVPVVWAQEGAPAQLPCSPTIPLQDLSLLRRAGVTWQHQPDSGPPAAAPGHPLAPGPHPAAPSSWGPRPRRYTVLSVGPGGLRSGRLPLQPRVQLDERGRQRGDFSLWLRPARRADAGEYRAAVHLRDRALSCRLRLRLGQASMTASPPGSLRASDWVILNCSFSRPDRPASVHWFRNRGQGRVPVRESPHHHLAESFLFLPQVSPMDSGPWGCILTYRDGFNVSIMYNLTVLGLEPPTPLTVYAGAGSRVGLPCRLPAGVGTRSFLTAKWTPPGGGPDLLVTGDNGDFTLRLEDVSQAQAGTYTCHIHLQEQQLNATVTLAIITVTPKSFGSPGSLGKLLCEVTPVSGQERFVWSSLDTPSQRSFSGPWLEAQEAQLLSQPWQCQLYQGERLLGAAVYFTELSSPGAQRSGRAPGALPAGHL
# Chain of cynomolgus LAG-3 ECD human IgG1 Fc fusion (cynomolgus; human) (P18627 other isoform, or with tags, fused parts or gaps, form in doubt): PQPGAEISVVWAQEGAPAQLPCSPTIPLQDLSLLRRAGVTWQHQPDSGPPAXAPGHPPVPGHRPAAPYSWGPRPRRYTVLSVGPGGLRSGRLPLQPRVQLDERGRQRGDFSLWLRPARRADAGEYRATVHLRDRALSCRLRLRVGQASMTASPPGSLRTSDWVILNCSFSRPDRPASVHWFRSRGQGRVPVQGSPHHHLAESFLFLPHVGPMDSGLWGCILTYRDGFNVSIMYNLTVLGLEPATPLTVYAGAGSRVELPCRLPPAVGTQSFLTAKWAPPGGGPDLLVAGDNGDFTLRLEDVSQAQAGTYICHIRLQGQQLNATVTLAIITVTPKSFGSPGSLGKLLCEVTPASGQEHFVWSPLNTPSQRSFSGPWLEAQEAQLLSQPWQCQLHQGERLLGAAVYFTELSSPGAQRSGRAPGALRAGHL
# Chain of human LAG-3 domain 1-2 Fc fusion, chimeric construct #6 (mutated region AA 48-55) (human) (P18627 other isoform, or with tags, fused parts or gaps mutant): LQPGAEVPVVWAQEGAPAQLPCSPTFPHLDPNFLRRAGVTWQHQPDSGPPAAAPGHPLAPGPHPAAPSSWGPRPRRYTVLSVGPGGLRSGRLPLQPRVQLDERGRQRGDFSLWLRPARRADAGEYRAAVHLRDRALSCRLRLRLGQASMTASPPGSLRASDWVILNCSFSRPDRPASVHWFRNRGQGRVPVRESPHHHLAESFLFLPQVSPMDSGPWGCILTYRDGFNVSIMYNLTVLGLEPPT
# Chain of human LAG-3 domain 1-2 Fc fusion, point mutation #47 T100A (human) (P18627 23-266 T100A): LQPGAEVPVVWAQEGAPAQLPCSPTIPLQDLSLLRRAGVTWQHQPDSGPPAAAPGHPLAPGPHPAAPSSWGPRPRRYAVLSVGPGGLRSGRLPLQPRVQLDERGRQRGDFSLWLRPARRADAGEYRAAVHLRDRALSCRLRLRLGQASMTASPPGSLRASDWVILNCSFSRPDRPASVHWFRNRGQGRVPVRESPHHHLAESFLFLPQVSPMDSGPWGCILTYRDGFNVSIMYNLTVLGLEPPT
# Chain of human LAG-3 domain 1-2 Fc fusion, chimeric construct #1 (mutated region AA 23-30) (human) (P18627 other isoform, or with tags, fused parts or gaps mutant): as the sequence (P18627 23-266 T100A) above, with L1S, Q2G, A5K, V7L, P8S, A78T counted along it
# Chain of human LAG-3 domain 1-2 Fc fusion, point mutation #35 A88S (human) (P18627 23-266 A88S): as the sequence (P18627 23-266 T100A) above, with A66S, A78T counted along it
# Chain of human LAG-3 domain 1-2 Fc fusion, point mutation #23 P76A (human) (P18627 23-266 P76A): as the sequence (P18627 23-266 T100A) above, with P54A, A78T counted along it
# Chain of human LAG-3 domain 1-2 Fc fusion, point mutation #2 Q41A (human) (P18627 23-266 Q41A): as the sequence (P18627 23-266 T100A) above, with Q19A, A78T counted along it
# Chain of human LAG-3 domain 1-2 Fc fusion, point mutation #3 P43A (human) (P18627 23-266 P43A): as the sequence (P18627 23-266 T100A) above, with P21A, A78T counted along it
# Chain of human LAG-3 domain 1-2 Fc fusion, point mutation #73 R137A (human) (P18627 23-266 R137A): as the sequence (P18627 23-266 T100A) above, with A78T, R115A counted along it
# Chain of human LAG-3 domain 1-2 Fc fusion, point mutation #59 Q117A (human) (P18627 23-266 Q117A): as the sequence (P18627 23-266 T100A) above, with A78T, Q95A counted along it
# Chain of human LAG-3 domain 1-2 Fc fusion, point mutation #10 S54A (human) (P18627 23-266 S54A): as the sequence (P18627 23-266 T100A) above, with S32A, A78T counted along it
# Chain of human LAG-3 domain 1-2 Fc fusion, point mutation #49 G105A (human) (P18627 23-266 G105A): as the sequence (P18627 23-266 T100A) above, with A78T, G83A counted along it
# Chain of human LAG-3 domain 1-2 Fc fusion, chimeric construct #20 (mutated region AA 123-131) (human) (P18627 23-266, change not shown): as the sequence (P18627 23-266 T100A) above, with A78T counted along it
# Chain of human LAG-3 domain 1-2 Fc fusion, point mutation #64 E124A (human) (P18627 23-266 E124A): as the sequence (P18627 23-266 T100A) above, with A78T, E102A counted along it
# Chain of human LAG-3 domain 1-2 Fc fusion, chimeric construct #19 (mutated region AA 118-127) (human) (P18627 other isoform, or with tags, fused parts or gaps mutant): as the sequence (P18627 23-266 T100A) above, with A78T, P96S, R97H, D101E, E102K, R105P counted along it
# Chain of human LAG-3 domain 1-2 Fc fusion, point mutation #43 P96A (human) (P18627 23-266 P96A): as the sequence (P18627 23-266 T100A) above, with P74A, A78T counted along it
# Chain of human LAG-3 domain 1-2 Fc fusion, point mutation #78 R154A (human) (P18627 23-266 R154A): as the sequence (P18627 23-266 T100A) above, with A78T, R132A counted along it
substance,measurement,setting,value
Fab fragment of 25F7-Lag3.5 analogue,KD mutant/KD wild type,[1],1.4 fold
same,KD mutant/KD wild type,[2],0.8 fold
same,KD mutant/KD wild type,[3],1.3 fold
same,KD mutant/KD wild type,[4],1.4 fold
same,KD mutant/KD wild type,[5],6.2 fold
same,KD mutant/KD wild type,[6],1.1 fold
same,KD mutant/KD wild type,[7],1.1 fold
same,KD mutant/KD wild type,[8],0.8 fold
same,KD mutant/KD wild type,[9],1 fold
same,KD mutant/KD wild type,[10],0.7 fold
same,KD mutant/KD wild type,[11],1.2 fold
same,KD mutant/KD wild type,[12],1 fold
same,KD mutant/KD wild type,[13],0.8 fold
same,KD mutant/KD wild type,[14],1.1 fold
same,KD mutant/KD wild type,[15],1.2 fold
same,KD mutant/KD wild type,[16],1.1 fold
same,KD mutant/KD wild type,[17],0.7 fold
same,KD mutant/KD wild type,[18],3.5 fold
same,KD mutant/KD wild type,[19],0.8 fold
same,KD mutant/KD wild type,[20],1.3 fold
same,KD mutant/KD wild type,[21],0.8 fold
same,KD mutant/KD wild type,[22],0.9 fold
same,KD mutant/KD wild type,[23],1 fold
same,KD mutant/KD wild type,[24],1.5 fold
same,KD mutant/KD wild type,[25],1 fold
same,KD mutant/KD wild type,[26],1 fold
same,KD mutant/KD wild type,[27],1 fold
same,KD mutant/KD wild type,[28],1.3 fold
same,KD mutant/KD wild type,[29],0.9 fold
same,KD mutant/KD wild type,[30],0.9 fold
same,KD mutant/KD wild type,[31],0.8 fold
same,Kd,[32],910 nM
same,koff,[32],0.0038 s⁻¹
same,kon,[32],4200 M⁻¹ s⁻¹
same,Kd,[33],8.5 nM
same,koff,[33],0.0012 s⁻¹
same,kon,[33],140000 M⁻¹ s⁻¹
